Assays:
[1] = Initial production rate determination under single turnover conditions; format: biochemical; conditions: single turnover condition
Protocol: To determine the initial rates of 1-alkene production under the single turnover conditions, the O2-saturated buffer solution (50 mM MES, pH 6.2, 100 mM NaCl) was mixed with an equal volume of an O2-free solution containing 50 mM MES buffer (pH 6.2), 100 mM NaCl, 200 μM (NH4)2Fe(SO4)2, 0.2-20 μM PFL_4321, and various concentrations of substrate (2-300 μM), so that the final mixture contained 50 mM MES buffer (pH 6.2), 100 mM NaCl, 0.1-10 μM PFL_4321, 100 μM (NH4)2Fe(SO4)2, and various concentrations of substrate (1-150 μM). The reactions were carried out in sealed GC vials and quenched by injecting 1 M NaOH at 2, 4, 6, 8, 10, 20, 30, 40, 50, 60 seconds. The productions of 1-alkenes were analyzed by SPME-GCMS analysis.

[2] = system: Saccharomyces cerevisiae S288c; test: Small-scale 1-alkene production in S. cerevisiae; format: cell-based; conditions: expression of PFL_4321, 30° C., 36 hours
Protocol: FIG. 25 illustrates GC-MS analysis of 1-undecene and nonene productions from Saccharomyces cerevisiae S288c (pESC_URA_PFL_4321). Saccharomyces cerevisiae S288c (pESC_URA_PFL_4321) was cultured in YPD media in sealed headspace vial at 30° C. for 36 hours before sampling using SPME-GCMS method.
PFL_4321 was PCR-amplified by using pESC-und-F/-R as primers (Table 1) and pZR59 as template, digested with BamH1/Sal1, and ligated into the pESC-URA vector to yield pESC-PFL_4321. S. cerevisiae was then transformed with pESC-PFL_4321 using the lithium acetate method outlined in the pESC-URA manual (Stratagene). Transformants were selected by […]. The cultures were grown in yeast-peptone media supplemented with 1% galactose in headspace GC vials at 30° C. for 36 hr before SPME-GCMS analysis.

[3] = Enzyme recycling experiments; format: biochemical; conditions: for 1-undecene produced (activity) compared with the original PFL_4321: recycled after single turnover with EDTA, reconstituted with fresh Fe2+
Protocol: To recycle the PFL_4321, 1 mL of the oxygenated buffer solution (50 mM MES, pH 6.2, 100 mM NaCl) was mixed with 1 mL of an O2-free solution containing 50 mM MES buffer (pH 6.2), 100 mM NaCl, 200 μM PFL_4321, 1 mM (NH4)2Fe(SO4)2, 2 mM LA, so that the final mixture contained 50 mM MES buffer (pH 6.2), 100 mM NaCl, 100 μM PFL_4321, 0.5 mM (NH4)2Fe(SO4)2, and 1 mM LA. This original reaction was quenched by adding 10-fold excess of EDTA to iron. The mixture was desalted on a GE Disposable PD-10 column and incubated at 4° C. on a nutator for two hours to completely remove the residual 1-undecene in the solution. The recycled apo-PFL_4321 was concentrated by using Centrifugal Filter Units (Millipore) and subjected to a second enzymatic assay that contained 50 mM MES buffer (pH 6.2), 100 mM NaCl, 100 μM PFL_4321, 0.5 mM (NH4)2Fe(SO4)2, and 1 mM LA. To initiate the reaction, 100 μL of the oxygenated buffer solution (50 mM MES, pH 6.2, 100 mM NaCl) was mixed with 100 μL of an O2-free solution containing 50 mM MES buffer (pH 6.2), 100 mM NaCl, 200 μM PFL_4321, 1 mM (NH4)2Fe(SO4)2, 2 mM LA. The control group was set up under similar conditions except that the original apo-PFL_4321 which had not been used for any enzymatic reactions was used. The experimental group containing recycled PFL_4321 produced 80% of the 1-undecene compared with the control group that contained the original PFL_4321.

[4] = Stoichiometry determination in single-turnover reactions; format: biochemical
Protocol: FIG. 27 illustrates the requirement for O2 for PFL_4321 activity.
To investigate 1-undecene formation and the O2 consumption, 0.5 mL of reaction mixture was prepared to contain 50 mM MES buffer (pH 6.2), 300 mM NaCl, 45 μM PFL_4321-Fe(II), and 500 μM LA (25 mM stock solution of LA sodium salt was prepared in 2% tergitol; tergitol is not required for <150 μM of LA). MES buffer (pH 6.2) was selected to reach slightly higher enzymatic activity than other buffers such as Bis-Tris (pH 6.0-7.0), Tris (pH 7.5-8.5), MOPS (pH 6.5-7.5), and HEPES (pH 6.8-8.0). The reaction was performed in a sealed headspace vial, initiated by adding PFL_4321 at room temperature and quenched by injecting equal volume of 5 M NaOH. 1-undecene production was analyzed and quantified using the SPME-GCMS method. The correlations of total 1-undecene produced and enzyme used were further determined varying PFL_4321 concentrations (40-1000 μM), and similar single turnover reactions were obtained in all assays (˜0.7-0.8 molecule of 1-undecene per molecule of PFL_4321-Fe(II)). O2 concentration was measured in a sealed reaction chamber (0.5 mL) with an integrated oxygen electrode unit (Oxygraph Plus System, Hansatech Instruments, UK). For the control group, LA was omitted from the reaction mixture.

[5] = measured stoichiometry, aerobic

B1: PFL_4321: protein of 261 amino acids from Pseudomonas fluorescens Pf-5; non-heme iron (II)-dependent enzyme converting medium-chain fatty acids into terminal olefins (protein, listed as Pseudomonas fluorescens)
chain: MIDTFSRTGPLMEAASYPAWTQQLIQDCSESKRRVVEHELYQRMRDNKLSAKVMRQYLIGGWPVVEQFALYMAQNLTKTRFARHPGEDMARRWLMRNIRVELNHADYWVHWSRAHGVTLEDLQAQQVPPELHALSHWCWHTSSADSLIVAIAATNYAIEGATGEWSALVCSNGIYAAAFPEEDRKRAMKWLKMHAQYDDAHPWEALEIIVTLAGLNPTKALQAELRQAICKSYDYMYLFLERCMQQEKTAVTRERLALAEG
With B1 the “initial rate of 1-undecene production” value [1] was 0.06±0.002 mol 1-undecene/(mol PFL_4321-Fe(II) second), the “production of 1-alkenes in Saccharomyces cerevisiae” value [2] was “led to the production of 1-undecene and 1-nonene in comparable amounts” and the “1-undecene production by recycled enzyme” value ([3]; EDTA omitted, desalted) was “failed to catalyze the reaction”. For the same molecule, the “1-undecene produced (activity) compared with the original PFL_4321” value ([3]; listed as apo-PFL_4321) was “over 80%”, the “1-undecene produced (activity) compared with the original PFL_4321” value ([3]; listed as recycled PFL_4321) was 80% and the “1-undecene produced per molecule of PFL_4321-Fe(II)” value [4, 5] was “approximately one”. The “O2 consumed per molecule of PFL_4321-Fe(II)” value [4, 5] was “approximately one” and the “total 1-undecene produced per enzyme used” value ([4]; single turnover reactions, PFL_4321 40-1000 μM) was 0.7-0.8 molecule of 1-undecene per molecule of PFL_4321-Fe(II).

Reference: US10000775B2, “Biosynthesis of 1-undecene and related terminal olefins” (The Regents of the University of California, priority 2013, dated 2018)
